Measurements from patent publication US20240400652A1.

Molecular target: SARS-CoV-2 spike with Y453F (SARS-CoV-2) (UniProt P0DTC2)
Assay: cell-based or functional assay

## REGN10987 (antibody)
  decrease in neutralization, live virus or pseudovirus (fold decrease): 4
